In patent publication US20100190698A1 (PHYLOGICA, published 2010):

B1: PYC36 (peptide)
peptide: RSDYKDDDDKGLQGRRRQGYQSIKP
B2: PYC41 (peptide)
peptide: RSDYKDDDDKVSINQEHHRLLPL
B3: PYC35 (peptide)
peptide: RSDYKDDDDKAYQSIRSGGIESSSKRER
B4: PYC38/39 (peptide)
peptide: RSDYKDDDDKGLQGRRQPGQQPQGRWSGRALPAHR

Molecular target: c-Jun (Jun dimers as AP-1 moieties, endogenous in K562/AP1-Luc cells) (UniProt P05412 1-331)
Assay: cell-based or functional assay

c-Jun (Jun dimers as AP-1 moieties, endogenous in K562/AP1-Luc cells), sequence (P05412 whole entry): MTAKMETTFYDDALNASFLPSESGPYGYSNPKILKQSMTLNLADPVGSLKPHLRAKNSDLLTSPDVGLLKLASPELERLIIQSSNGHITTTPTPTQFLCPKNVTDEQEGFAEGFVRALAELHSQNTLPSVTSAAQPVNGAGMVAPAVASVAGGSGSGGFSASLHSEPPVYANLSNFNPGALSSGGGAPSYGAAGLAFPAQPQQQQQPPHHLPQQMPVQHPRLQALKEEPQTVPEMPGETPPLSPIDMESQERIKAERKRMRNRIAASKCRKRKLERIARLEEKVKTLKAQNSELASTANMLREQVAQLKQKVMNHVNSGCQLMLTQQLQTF

Binder	AP-1 reporter activity (luciferase, K562/AP1-Luc cells), of the level observed for the control sample
B1	~44 % of control
B2	~48 % of control
B3	~35 % of control
B4	~47 % of control
